Test results reported in patent US20020076785.
“Also recorded” adds a separate entry of the source.

Tests used:
[1] = biological target: recombinant C. elegans Cdc42 (UniProt Q05062)
[2] = biological target: recombinant C. elegans Rac (UniProt Q03206)
[3] = biological target: recombinant C. elegans Rho (UniProt Q22038)
recombinant C. elegans Rho, sequence (Q22038 whole entry): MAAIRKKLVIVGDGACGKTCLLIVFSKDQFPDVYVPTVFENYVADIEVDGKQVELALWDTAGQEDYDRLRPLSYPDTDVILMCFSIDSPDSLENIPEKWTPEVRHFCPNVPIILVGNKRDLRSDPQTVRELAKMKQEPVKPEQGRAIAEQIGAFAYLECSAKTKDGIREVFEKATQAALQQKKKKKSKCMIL

recombinant C. elegans Cdc42, sequence (Q05062 whole entry): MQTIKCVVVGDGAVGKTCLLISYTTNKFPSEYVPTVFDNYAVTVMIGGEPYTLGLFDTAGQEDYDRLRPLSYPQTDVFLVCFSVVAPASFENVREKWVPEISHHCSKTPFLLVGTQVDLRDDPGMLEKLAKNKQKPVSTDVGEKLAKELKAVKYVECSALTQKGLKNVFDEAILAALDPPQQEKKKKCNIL

With “GST-CYK-4-GAP (GST fused to the GAP domain of CYK-4, amino acids 407-681)” as the substance, how does the GTP hydrolysis [1] read?
Its GTP hydrolysis is “The GAP domain of CYK-4 promotes GTP hydrolysis by all three tested GTPases; also recorded: the CYK-4 GAP domain is more active towards Rac and Cdc42 than towards Rho”.

And the GTP hydrolysis [2]?
The GTP hydrolysis was “The GAP domain of CYK-4 promotes GTP hydrolysis by all three tested GTPases; also recorded: the CYK-4 GAP domain is more active towards Rac and Cdc42 than towards Rho”.

And the GTP hydrolysis [3]?
The GTP hydrolysis was “The GAP domain of CYK-4 promotes GTP hydrolysis by all three tested GTPases; also recorded: the CYK-4 GAP domain is more active towards Rac and Cdc42 than towards Rho”.
